5 substances from publication PMC7979930 can be followed below.

For orientation: Kd means the constant that tells how readily two partners part at equilibrium.

Data set [1] addresses CBF3, dephosphorylated (CBF3core + Ndc10 NTD) (budding yeast) (UniProt P40969+P35203+P52286+P32504). In words: EMSA. Particulars: Ndc10 dissociates, main text says CEN3 nucleosome, Methods CEN3-601, EMSA: 10 mM Tris pH 7.4, 75 mM NaCl, 1 mM DTT, 60 min on ice, 530 nM nucleosome, 106-1166 nM CBF3/CBF3core, 4% PAGE 0.2x TBE 4 C, EtBr stain, Hill fit. Background: Mobility shift assays separate free from complexed probe on a gel.

In data set [2] the target is CBF3core, dephosphorylated (Cep3 dimer, Ctf13, Skp1) (budding yeast) (UniProt P40969+P35203+P52286). Kind of data set: EMSA. Conditions: 1 mM DTT, 60 min on ice, 530 nM nucleosome, 106-1166 nM CBF3/CBF3core, 4% PAGE 0.2x TBE 4 C, EtBr stain, Hill fit.
Data set [3] concerns the target CEN3 CENP-A^Cse4_∆L1 nucleosome (budding yeast | yeast) (UniProt P36012). In words: native gel or EMSA; CBF3/CBF3core with CEN3 nucleosomes, room temperature 60 min; native agarose gels in 0.2 x TBE, SYBR Green I stain, bands quantified.
For data set [4], the target named is CEN3 CENP-A^Cse4 nucleosome (budding yeast | yeast) (UniProt P36012). The data set is described as above.
Data set [5] addresses CEN3 CENP-A^Cse4_∆L1 nucleosome with H2B_5mut (budding yeast | yeast) (UniProt P36012). The data set is described as above.
Data set [6] concerns the target CEN3 CENP-A^Cse4 nucleosome with H2B_5mut (budding yeast | yeast) (UniProt P36012). The data set is described as above.
The mark [7] stands for this setting: Fig. 3c legend says CEN3, Supp. Fig. 4f says CEN3-601, EMSA: 10 mM Tris pH 7.4, 75 mM NaCl.

With “ATCGAGAATCCCGGTGCCGAGGCCGCTCAATTGGTCGTAGACAGCTCTAGCACCGCTTAAACGCACGTACGCGCTGTCCCCCGCGTTTTAATATTAGTGTATTTGATTTCCGAAAGTTAAAAAAGAAATAGTAAGAAATCATCCGAT (double strand) [CEN3-601 Cse4 nucleosome]”, the Kd is 550 nM in data set [1]; 320 nM in data set [2] (NucCse4/H2B, Fig. 3c legend says CEN3, Supp. Fig. 4f and Methods say CEN3-601, EMSA: 10 mM Tris pH 7.4, 75 mM NaCl).
In the case of “ATCGAGAATCCCGGTGCCGAGGCCGCTCAATTGGTCGTAGACAGCTCTAGCACCGCTTAAACGCACGTACGCGCTGTCCCCCGCGTTTTAATATTAGTGTATTTGATTTCCGAAAGTTAAAAAAGAAATAGTAAGAAATCATCCGAT (double strand) [CEN3-601 Cse4/H2B_5mut nucleosome]”, the Kd in data set [2] (setting [7]) was 350 nM.
Same read-out and setting: next, “ATCGAGAATCCCGGTGCCGAGGCCGCTCAATTGGTCGTAGACAGCTCTAGCACCGCTTAAACGCACGTACGCGCTGTCCCCCGCGTTTTAATATTAGTGTATTTGATTTCCGAAAGTTAAAAAAGAAATAGTAAGAAATCATCCGAT (double strand) [CEN3-601 Cse4_deltaL1 nucleosome]”: 360 nM.
The same measure, in the same setting: next, “ATCGAGAATCCCGGTGCCGAGGCCGCTCAATTGGTCGTAGACAGCTCTAGCACCGCTTAAACGCACGTACGCGCTGTCCCCCGCGTTTTAATATTAGTGTATTTGATTTCCGAAAGTTAAAAAAGAAATAGTAAGAAATCATCCGAT (double strand) [CEN3-601 Cse4_deltaL1/H2B_5mut nucleosome]”: 680 nM.
“dephosphorylated CBF3core (from UniProt P40969 1-608; P52286 1-194; P35203 1-478) (complex)”: the Kd was 360 nM in data set [3], 320 nM in data set [4], 680 nM in data set [5] and 350 nM in data set [6].
